# Test results as given in patent US20240409619A1 (WISTAR INSTITUTE OF ANATOMY AND BIOLOGY, published 2024).
# Target: SARS-COV-2 spike protein, isolate USA-WA1/2020, on pseudotyped virus (SARS-COV-2, UniProt P0DTC2 14-1273)
# Assay: cell-based or functional assay
binder,measurement,value
"DMAb 2381_FcWT (antibody, V domains shown) VH: QMQLVQSGPEVKKPGTSVKVSCKASGFTFTSSAVQWVRQARGQRLEWIGWIAVGSGNTNYAQKFQERVSITRDMSTSTAYMELSSLRSEDTAVYYCAAPYCSRTSCHDAFDIWGQGTKVTVSS VL: EVVLTQSPGTLSLSPGERATLSCRASQSVSSSYLAWYQQKPGQAPRLLIYGASSRATGIPDRFSGSGSGTDFTLTISRLEPEDFAVYHCQHFGSSSQWTFGQGTKVEIKR",neutralization potency (IC50) of serum against pseudotyped virus,< 5 ng/mL
